Conditions: Aspergillus oryzae (strain ATCC 42149 / RIB 40), Thermal, DSC, whole UniProt chain shown

B1: Guanyl-specific ribonuclease T1 wild type, P00651 (protein)
chain: MMYSKLLTLTTLLLPTALALPSLVERACDYTCGSNCYSSSDVSTAQAAGYQLHEDGETVGSNSYPHKYNNYEGFDFSVSSPYYEWPILSSGDVYSGGSPGADRVVFNENNQLAGVITHTGASGNNFVECT
Protein B1 has an unfolding free energy (pH 2.8, 17.1 °C, glycine 10 mM) of 5.6 kcal/mol, an unfolding free energy (pH 2.8, 21.1 °C, glycine 10 mM) of 4.9 kcal/mol and an unfolding free energy (pH 2.8, 24.9 °C, glycine 10 mM) of 4.3 kcal/mol. The unfolding free energy (pH 2.8, 25 °C, glycine 10 mM) was 4.3 kcal/mol, the unfolding free energy (pH 2.8, 27.8 °C, glycine 10 mM) was 3.7 kcal/mol and the unfolding free energy (pH 3, 25 °C, glycine 10 mM) was 5.2 kcal/mol. The Tm (pH 3, glycine 10 mM) was 49.1 °C, the “unfolding enthalpy (calorimetric)” value (pH 3, glycine 10 mM) was 82.7 kcal/mol and the unfolding free energy (pH 3.6, 25 °C, acetate 10 mM) was 6.7 kcal/mol. For the same protein, the unfolding free energy (pH 4, 25 °C, acetate 10 mM) was 7.2 kcal/mol, the unfolding free energy (pH 5, 25 °C, acetate 10 mM) was 8.1 kcal/mol and the Tm (pH 5, acetate 10 mM) was 58.6 °C. For the same protein, the “unfolding enthalpy (calorimetric)” value (pH 5, acetate 10 mM) was 99.1 kcal/mol, the unfolding free energy (pH 6, 25 °C, MOPS or HEPES 10 mM) was 8.5 kcal/mol and the Tm (pH 6, MOPS or HEPES 10 mM) was 60.3 °C. For the same protein, the “unfolding enthalpy (calorimetric)” value (pH 6, MOPS or HEPES 10 mM) was 101 kcal/mol, the Tm (pH 7, MOPS or HEPES 10 mM) was 61.8 °C and the “unfolding enthalpy (calorimetric)” value (pH 7, MOPS or HEPES 10 mM) was 102 kcal/mol.
